The values below come from US20230174624A1, “FERRITIN VARIANTS WITH INCREASED STABILITY, COMPLEXATION ABILITY AND TRANSFERRIN RECEPTOR AFFINITY” (CELLIS AG, priority 2020, published 2023).

“Also recorded” adds a separate entry of the source.

The subject of series [1] is breast and ovarian cancer cell lines: MDA-MB 231, Skov3 and 4T1. The series is described as follows: Tumour cell viability after co-culture with macrophages carrying doxorubicin packed ferritin. It is filed as cell-based. The following applies: 72 h co-culture with macrophages, ferritin cages filled with doxorubicin 1 mg/ml. Here is the method:
FIG. 7: Graphs of tumour cell viability after 72 h co-culture with macrophages. The concentration of ferritin cages filled with doxorubicin was the same for each variant of ferritin and was equal to 1 mg/ml.
In vitro experiments have shown that ferritin mutants reveal better cytotoxicity against tumor cells. The doxorubicin packed proteins were inserted into macrophages and then co-cultured with breast and ovarian cancer cell lines: MDA-MB 231, Skov3 and 4T1. The number of viable cells after co-culture was the lowest for the Q11E-Q15E mutant (FIG. 7).

Series [2] in a line: Native gel after storage in a freezer (-80 degrees Celsius) and thawing. The series is classed as physicochemical. The following applies: ferritin-dox.
The nature of series [3]: Native PAGE gel after doxorubicin encapsulation and purification. It is filed as physicochemical. The following applies: ferritin-dox after encapsulation, concentrated on 10 or 100 kDa Amicon. From the text:
Native PAGE gel has been performed in order to check the size of the protein after encapsulation and purification.

The target of series [4] is TfR1 (Homo sapiens, UniProt P02786). The series is described as follows: Surface plasmon resonance binding of ferritin to immobilized his-tagged TFRC receptor. Here is the method: FIG. 2: Sensorgrams corresponding to the interaction between the immobilized his-tagged TFRC receptor and human ferritin. Panel A: mutant Q11E, panel B: wild type. X-axis: time (s). The same amount of receptor was trapped onto the chip surface (see methods section for details). Five different analyte concentrations (0.0625, 0.125, 0.250, 0.5 and 1 mg/ml) were used. For all analyte concentrations measured, the amount of ferritin bound is higher for the Q11E mutant than for wild-type ferritin.
Binding of wild type and Q11E mutant ferritin to TfR1 was analysed by surface plasmon resonance.

The test system of series [5] is siRNA. The series is described as follows: siRNA association with ferritin (gel). The series is classed as binding. Here is the method:
1 ml reaction containing 2 mg Ft and 4 ug siRNA in DPBS, pH lowered to values as indicated (2.5, 3.2, 4.4, 5.6 and 6.8, respectively). Samples were incubated 15 min in RT, then NaOH was added to adjust pH to neutral (pH 7). Non-associated free siRNA was removed by 4 centrifugation steps on Amicons with 100 kDa cut-off.

TfR1, sequence (P02786 whole entry, species assumed): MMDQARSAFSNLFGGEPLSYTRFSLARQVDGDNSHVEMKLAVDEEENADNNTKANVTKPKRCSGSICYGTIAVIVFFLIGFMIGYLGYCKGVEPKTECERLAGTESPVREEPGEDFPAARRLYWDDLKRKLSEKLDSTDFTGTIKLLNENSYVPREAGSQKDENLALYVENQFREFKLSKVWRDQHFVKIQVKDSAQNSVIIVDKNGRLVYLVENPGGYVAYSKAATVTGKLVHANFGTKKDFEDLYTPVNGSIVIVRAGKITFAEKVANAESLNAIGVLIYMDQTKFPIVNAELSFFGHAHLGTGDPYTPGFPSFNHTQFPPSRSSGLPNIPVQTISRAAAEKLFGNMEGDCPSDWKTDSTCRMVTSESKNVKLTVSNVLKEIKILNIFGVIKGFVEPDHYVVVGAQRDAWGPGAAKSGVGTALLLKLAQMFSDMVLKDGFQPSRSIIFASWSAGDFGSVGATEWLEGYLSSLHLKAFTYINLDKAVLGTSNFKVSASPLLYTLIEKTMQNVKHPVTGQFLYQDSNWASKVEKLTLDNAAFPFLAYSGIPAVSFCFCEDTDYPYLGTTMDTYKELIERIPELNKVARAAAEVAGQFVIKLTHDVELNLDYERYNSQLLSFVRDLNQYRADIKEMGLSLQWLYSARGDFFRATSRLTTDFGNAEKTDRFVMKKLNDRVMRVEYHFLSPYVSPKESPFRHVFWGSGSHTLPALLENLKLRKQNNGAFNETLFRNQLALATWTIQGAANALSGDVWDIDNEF

For the substance “Q11E-Q15E: human H ferritin mutant Q11E Q15E (TRBD SEQ ID NO. 12); in examples 3-8 also K54E, K72E, K87Q, K144E, C91S, C103S (MTTASTSQVRENYHEDSEAA; listed as Homo sapiens)”, in series [1], the “number of viable cells after co-culture” value is on record as “lowest”. Further, the “stability of cages after storage” value in series [2] was “still present as 24-mers (homogeneous cages) after storage”. The “forms on native gel (24-mers versus aggregates)” value in series [3] is “present as 24-mers (homogeneous cages)”.
For “Q11E: human H ferritin mutant Q11E (TRBD SEQ ID NO. 05); in examples 3-8 also K54E, K72E, K87Q, K144E, C91S, C103S, C131S (MTTASTSQVRENYHQDSEAA; listed as Homo sapiens)”, the “stability of cages after storage” value in series [2] is “still present as 24-mers (homogeneous cages) after storage; also recorded: reduces the presence of aggregates and allows the storage of ferritin cages with doxorubicin in the freezer”. Besides, the “forms on native gel (24-mers versus aggregates)” value in series [3] is given as “present as 24-mers (homogeneous cages)”. In series [4], the “binding affinity to the CD71 receptor relative to wild type” value is “at least fourfold” and the “rate of release from its complex with CD71 receptor” value is “slow rate of release”. In addition, in series [4] (global fit, simple 1:1 binding mode, versus wild type), the KD result was “lower KD value”. For the same substance, the “amount of ferritin bound” value in series [4] (versus wild-type ferritin, analyte 0.0625-1 mg/ml) is “higher”. Further, the “association with siRNA” value in series [5] (incubated in pH 2.4 and 3.2) is on record as “not”. Moreover, the “association with siRNA” value in series [5] (incubated in pH range 4.4 to 6.8) was “associated with siRNA”.
